For test [1], the system named is maspin HRE element (pBLAp1/HRE reporter) in CF3 and LNCaP cells. Put plainly: CAT assay of pBLAp1/HRE construct with or without androgen (R1881) treatment. Format: cell-based, human. The settings on record: 50 nM R1881 vs vehicle added after transfection. The procedure:
For construction of pBLAp1/HRE, pairs of OL8 and OL9 oligos were annealed as described above. The annealed product was phosphorylated by T4 polynucleotide kinase, and ligated to the BamHI site of pBLAp1 (pBLCAT2 containing three copies of Ap1) to generate pBLAp1/HRE (FIG. 12).
Cells were plated at 1 ×106/p100 and grown to about 75% confluence. SNA was transfected by the method of modified DEAE-Dextran (Promega, Inc., Madison, Wis.). The amounts of DNAs used were: 10 μg reporter plasmid, except for PCMVCAT in which only 2 μg of DNA was used. 1 μg of pCMVβgal was used as an internal control for transfection efficiency. For the androgen treatment, 50 nM methyltrienolone.(R1881, from Du Pont-New England Nuclear, Inc., Boston, Mass.) or vehicle was added to the cultures after transfection. […] The β-galactosidase activity in the extracts was calculated as described by Swisshelm et al. (Cell Growth Differ. 5:133, 1994). Twenty units of extracts (calculated by β-galactosidase activity) were used for each CAT assay except for transfection with pCMVCAT positive control in which only 10 units of extracts were used because of high activity. […] Quantitation of acetylated […] and nonacetylated chloramphenicol was performed by cutting out the appropriate regions of the silica gel TLC plate and counting in BioFluor (DuPont, Wilmington, Del.). […]

For test [2], the system named is tumor cells. The settings on record: expressed in tumor transfectants or added as recombinant maspin; Sheng et al. 1994; cited from earlier work.
The test system of test [3] is tumor cells. The following applies: Sager et al. 1995; cited from earlier work.

With `C[C@]1(O)CC[C@H]2[C@@H]3CCC4=CC(=O)CCC4=C3C=C[C@@]21C` [R1881, methyltrienolone], the “effect of R1881 treatment on HRE-mediated inhibition of promoter (CAT) activity” value in test [1] was “Little difference in inhibition”.

B1: Maspin: a serpin expressed in normal human mammary epithelial cells (protein, UniProt P36952 1-375, looked up)
Serpin B5: MDALQLANSAFAVDLFKQLCEKEPLGNVLFSPICLSTSLSLAQVGAKGDTANEIGQVLHFENVKDVPFGFQTVTSDVNKLSSFYSLKLIKRLYVDKSLNLSTEFISSTKRPYAKELETVDFKDKLEETKGQINNSIKDLTDGHFENILADNSVNDQTKILVVNAAYFVGKWMKKFSESETKECPFRVNKTDTKPVQMMNMEATFCMGNIDSINCKIIELPFQNKHLSMFILLPKDVEDESTGLEKIEKQLNSESLSQWTNPSTMANAKVKLSIPKFKVEKMIDPKACLENLGLKHIFSEDTSDFSGMSETKGVALSNVIHKVCLEITEDGGDSIEVPGARILQHKDELNADHPFIYIIRHNKTRNIIFFGKFCSP
On to B1, for which the “invasion in a Boyden chamber assay” value in the test on tumor cells [2] was “inhibits invasion”. In addition, the “mobility of tumor cells” value with tumor cells [3] was “inhibit mobility of tumor cells”.
